This passage reports IC50 results from patent US20160317649A1, “EPITOPES OF HERPES SIMPLEX VIRUS” (priority 2007, published 2016).

Common to all, as to conditions: modification not given
For assay [1], the target named is HLA DRB1*0101 (human).
The next assay addresses HLA DRB1*1302 (human).
Assay [2] has as its target HLA DRB1*0101 (human). This is another data set of the same source.
The target in assay [3] is HLA DRB1*0701 (human).
The target of assay [4] is HLA DRB1*0101 (human). This is another data set of the same source.
Assay [5] has as its target HLA DRB1*0701 (human). The source holds these as a separate data set.

Read-outs that look alike come from different tables or passages of the source.

B1: 34.1 (peptide)
chain: HAPAAPANPGLI
In the assay with HLA DRB1*0101 (human) [1], B1 showed a concentration for half-maximal inhibition (IC50) of 3.55 µM. This counts as single-digit micromolar.

B2: 34.2 (peptide)
chain: APAAPANPGLII
For the molecule B2, the results for the IC50 in the assay with HLA DRB1*1302 (human) and with HLA DRB1*0101 (human) [2] were 642 nM and 1270 nM, respectively.

B3: 24.3 (peptide)
chain: YQQGVTVDSIGM
B3 yielded an IC50 with HLA DRB1*0701 (human) [3] of 389 nM.

B4: 24.2 (peptide)
chain: AYQQGVTVDSIG
For B4, the half-maximal inhibitory concentration (IC50) in the assay with HLA DRB1*0101 (human) [4] came out at 471 nM; with HLA DRB1*0701 (human) [5], 2720 nM.
